16 molecules from patent US20110301327A1 (MANNKIND, published 2011) can be followed below.

Like-named read-outs stand apart in the source and are kept apart here. Where no end group is shown, it is not given here. [ ]: non-standard residue; d: D form. Orn = NCCC[C@H](N)C(=O)O; Nva = CCC[C@H](N)C(=O)O

The target of test [1] is T1, HLA-A*0201 (human).
T1 construct: Empty class I on TAP-deficient T2 cells, stabilised by the added peptide; also called HLA-A2; MHC class I (A2 allele) on T2 cells
As to the kind of experiment: T2 cell binding, flow cytometry.

Test [2] addresses T2, HLA-A*0201 class I monomer (ITOPIA Epitope Discovery System plates).
T2 construct: Bought kit; for the PSMA series only HLA-A2 is implied; also called MHC monomer; HLA-A2
As to the kind of experiment: iTopia binding assay.

The target of test [3] is T1, HLA-A*0201. Description: T2 cell binding, flow cytometry; half-maximal binding.
In test [4] the target is T2, HLA-A*0201 class I monomer (ITOPIA …). Description: iTopia affinity assay.
The target of test [5] is T1, HLA-A*0201. As to the kind of experiment: T2 cell binding, flow cytometry. The source holds these as a separate data set.
Test [6] has as its target T2, HLA-A*0201 class I monomer (ITOPIA …). Description: iTopia affinity assay (ED50).

For the molecule FLLMWITQC (also called Substitution of S157 with F) [NY-ESO-1 157-165 S157F], in the test with HLA-A*0201 [1], the binding result was “binds”. In the case of KLLMWITQC (also called Substitution of S157 with K) [NY-ESO-1 157-165 S157K], in the test with HLA-A*0201 [1], the binding result is reported as “binds”.

Take XLLQHLIGL (Hse (homoserine) at P1) [PRAME425-433 analog, Hse at P1]: the binding result in test [2] is listed as “binds”. FVSEKIFYM [SSX2 41-49 (K41F, A42V, V49M)] registered an EC50 with HLA-A*0201 [3] of 17.8 µM. KLSEKIFYI [SSX2 41-49(A42L, V49I)] had a concentration for a half-maximal effect (EC50) with HLA-A*0201 [3] of 5.68 µM. Consider KVSEKIFYI [SSX2 41-49(A42V, V49I)], for which the EC50 in the test with HLA-A*0201 [3] was 13.9 µM.

Take KASEKIFYI [SSX2 41-49(V49I)]: the concentration for a half-maximal effect (EC50) with HLA-A*0201 [3] is 14 µM. Take KLSEKIFYVX (Nva, norvaline, at position 10 (50)) [SSX-2 41-50(A42L, Y50(Nva))]: the binding result with HLA-A*0201 [1] is “binds”. As for SLLQHLIGA [PRAME425-433 analog, Ala at PO], in test [4], the binding result is “binds”. KLLQHLIGL (also called Lys P1 analog) [PRAME425-433 analog, Lys at P1]: the binding result in test [2] is “binds”. With [Orn]LLQHLIGL [PRAME425-433 analog, Orn at P1], in test [2], the binding result was “binds”. For KASEKIFYX (C-terminal amide) [SSX2 41-49-NH2], the binding result with HLA-A*0201 [5] is “no binding”. With KLSEKIFYVL [SSX-2 41-50(A42L, Y50L)], the binding result with HLA-A*0201 [1] is reported as “binds”. Same read-out and setting: under KLSEKIFYVV [SSX-2 41-50(A42L, Y50V)] stands “binds”; under KLSEKIFYVX (Nle, norleucine, at position 10 (50)) [SSX-2 41-50(A42L, Y50(Nle))], “binds”.

With S[Nva]LQHLIGL [PRAME425-433 analog, Nva at P2], the “fold reduction of affinity against the native peptide” value in test [6] was around 3 fold.
